Measured values published in the supplement of paper PMC9112550, “Optimization of the antimicrobial peptide Bac7 by deep mutational scanning” (BMC Biology, 2022).

The sequences below were run on Escherichia coli TOP10 (assay: shrunken log2 fold change of peptide-encoding DNA abundance (4.5 h post-induction vs induction); higher = less antimicrobial activity (less host growth inhibition)). Settings: time post-induction: 4.5 h; library: site-saturation at positions 5, 18, 19, 20.
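Further: peptides expressed intracellularly from a pBAD plasmid library in pooled LB shake-flask culture, induced with 0.3% L-arabinose, DNA abundance read by NGS, three biological replicates, DESeq2 with apeglm shrinkage.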

Row | Sequence | shrunken log2 fold change
1 | RRIRVRPPRLPRPRPRPEDEPRP | 0.138
2 | RRIRGRPPRLPRPRPRPMEEPRP | 0.48
3 | RRIRWRPPRLPRPRPRPEACPRP | 1.5
4 | RRIRERPPRLPRPRPRPKNYPRP | -0.463
5 | RRIRMRPPRLPRPRPRPVNIPRP | -0.361
6 | RRIRQRPPRLPRPRPRPVDMPRP | -0.108
7 | RRIRMRPPRLPRPRPRPQNVPRP | -0.0183
8 | RRIRVRPPRLPRPRPRPDIRPRP | -0.179
9 | RRIRPRPPRLPRPRPRPYKQPRP | -0.777
10 | RRIRMRPPRLPRPRPRPWIPPRP | -0.205
11 | RRIRERPPRLPRPRPRPEGAPRP | 0.592
12 | RRIRQRPPRLPRPRPRPMTHPRP | -0.466
13 | RRIRRRPPRLPRPRPRPVEQPRP | 0.0679
14 | RRIRGRPPRLPRPRPRPCSVPRP | 0.394
15 | RRIRWRPPRLPRPRPRPLPIPRP | -0.0952
16 | RRIRMRPPRLPRPRPRPTPRPRP | 1.46
17 | RRIRARPPRLPRPRPRPCWAPRP | 0.119
18 | RRIRWRPPRLPRPRPRPGKCPRP | 0.0425
19 | RRIRARPPRLPRPRPRPDHYPRP | -0.287
20 | RRIRTRPPRLPRPRPRPDGEPRP | 0.0799
21 | RRIRSRPPRLPRPRPRPVLSPRP | 0.0825
22 | RRIRKRPPRLPRPRPRPGMMPRP | 0.308
23 | RRIRERPPRLPRPRPRPCCTPRP | -0.243
24 | RRIRMRPPRLPRPRPRPLLQPRP | 0.616
25 | RRIRERPPRLPRPRPRPDVCPRP | -0.239

Row | Sequence | shrunken log2 fold change
26 | RRIRMRPPRLPRPRPRPQHNPRP | -0.605
27 | RRIRKRPPRLPRPRPRPPAFPRP | 0.309
28 | RRIRRRPPRLPRPRPRPVHTPRP | 0.0317
29 | RRIRLRPPRLPRPRPRPDCCPRP | 0.0778
30 | RRIRKRPPRLPRPRPRPPNKPRP | 0.289
31 | RRIRQRPPRLPRPRPRPEMGPRP | 0.223
32 | RRIRDRPPRLPRPRPRPKYDPRP | 0.0612
33 | RRIRIRPPRLPRPRPRPPMIPRP | -0.112
34 | RRIRRRPPRLPRPRPRPNKIPRP | 0.755
35 | RRIRVRPPRLPRPRPRPNPAPRP | 0.31
36 | RRIRIRPPRLPRPRPRPWDVPRP | -0.468
37 | RRIRERPPRLPRPRPRPAPLPRP | 0.324
38 | RRIRRRPPRLPRPRPRPTNEPRP | 0.0166
39 | RRIRPRPPRLPRPRPRPEPYPRP | -0.309
40 | RRIRIRPPRLPRPRPRPYHVPRP | -0.186
41 | RRIRFRPPRLPRPRPRPDIEPRP | 0.0974
42 | RRIRCRPPRLPRPRPRPVKSPRP | 0.967
43 | RRIRMRPPRLPRPRPRPACVPRP | 0.428
44 | RRIRTRPPRLPRPRPRPKWVPRP | 0.129
45 | RRIRMRPPRLPRPRPRPHTFPRP | -0.384
46 | RRIRFRPPRLPRPRPRPPPCPRP | 0.898
47 | RRIRGRPPRLPRPRPRPWFDPRP | -0.0883
48 | RRIRIRPPRLPRPRPRPMYKPRP | -1.13
49 | RRIRGRPPRLPRPRPRPEQHPRP | 0.66
50 | RRIRGRPPRLPRPRPRPQMVPRP | 0.166

Row | Sequence | shrunken log2 fold change
51 | RRIRNRPPRLPRPRPRPDEAPRP | 0.27
52 | RRIRERPPRLPRPRPRPVWFPRP | -0.0467
53 | RRIRKRPPRLPRPRPRPKQDPRP | 0.119
54 | RRIRIRPPRLPRPRPRPRNEPRP | 0.227
55 | RRIRLRPPRLPRPRPRPLRKPRP | 0.183
56 | RRIRFRPPRLPRPRPRPLDPPRP | 0.0688
57 | RRIRTRPPRLPRPRPRPRMIPRP | 0.113
58 | RRIRWRPPRLPRPRPRPATGPRP | 0.0426
59 | RRIRVRPPRLPRPRPRPPDEPRP | 0.621
60 | RRIRWRPPRLPRPRPRPPSWPRP | 1.32
61 | RRIRWRPPRLPRPRPRPHSRPRP | 0.194
62 | RRIRGRPPRLPRPRPRPDVYPRP | -0.0497
63 | RRIRERPPRLPRPRPRPRFKPRP | 0.00602
64 | RRIRKRPPRLPRPRPRPDMDPRP | 0.0224
65 | RRIRFRPPRLPRPRPRPTKNPRP | -0.0239
66 | RRIRERPPRLPRPRPRPREDPRP | -0.0632
67 | RRIRERPPRLPRPRPRPWRIPRP | -0.0301
68 | RRIRCRPPRLPRPRPRPHHYPRP | -0.685
69 | RRIRMRPPRLPRPRPRPIHLPRP | -0.209
70 | RRIRERPPRLPRPRPRPGTIPRP | -0.386
71 | RRIRARPPRLPRPRPRPYILPRP | -0.983
72 | RRIRSRPPRLPRPRPRPVHPPRP | 0.245
73 | RRIRFRPPRLPRPRPRPDWAPRP | 0.0526
74 | RRIRHRPPRLPRPRPRPEPMPRP | 0.134
75 | RRIRKRPPRLPRPRPRPLVSPRP | 0.0109

Row | Sequence | shrunken log2 fold change
76 | RRIRCRPPRLPRPRPRPIDCPRP | -0.128
77 | RRIRRRPPRLPRPRPRPIYMPRP | -0.138
78 | RRIRRRPPRLPRPRPRPSLEPRP | 0.232
79 | RRIRFRPPRLPRPRPRPTCYPRP | -0.23
80 | RRIRNRPPRLPRPRPRPMCSPRP | -0.0636
81 | RRIRDRPPRLPRPRPRPWLIPRP | -0.138
82 | RRIRIRPPRLPRPRPRPWMLPRP | -0.13
83 | RRIRVRPPRLPRPRPRPRNGPRP | 0.0197
84 | RRIRPRPPRLPRPRPRPVDDPRP | 0.103
85 | RRIRHRPPRLPRPRPRPCMTPRP | 0.0183
86 | RRIRMRPPRLPRPRPRPFDYPRP | -0.16
87 | RRIRVRPPRLPRPRPRPDHHPRP | -0.392
88 | RRIRYRPPRLPRPRPRPESPPRP | -0.0215
89 | RRIRKRPPRLPRPRPRPEMTPRP | 2.82
90 | RRIRWRPPRLPRPRPRPPYTPRP | -0.137
91 | RRIRERPPRLPRPRPRPYHLPRP | -0.0102
92 | RRIRRRPPRLPRPRPRPHMYPRP | -0.272
93 | RRIRVRPPRLPRPRPRPTESPRP | -0.00266
94 | RRIRVRPPRLPRPRPRPLIPPRP | -0.406
95 | RRIRERPPRLPRPRPRPCMNPRP | -0.341
96 | RRIRARPPRLPRPRPRPRGGPRP | 0.737
97 | RRIRFRPPRLPRPRPRPRQRPRP | 0.346
98 | RRIRCRPPRLPRPRPRPYDTPRP | -0.308
99 | RRIRKRPPRLPRPRPRPRLWPRP | 1.01
100 | RRIRLRPPRLPRPRPRPGTSPRP | -0.0167

Row | Sequence | shrunken log2 fold change
101 | RRIRVRPPRLPRPRPRPNYSPRP | -0.438
102 | RRIRLRPPRLPRPRPRPVYPPRP | -0.132
103 | RRIRERPPRLPRPRPRPDSRPRP | -0.0302
104 | RRIRVRPPRLPRPRPRPVKFPRP | -0.133
105 | RRIRPRPPRLPRPRPRPDGAPRP | 0.159
106 | RRIRTRPPRLPRPRPRPMMEPRP | -0.202
107 | RRIRCRPPRLPRPRPRPRGKPRP | 0.777
108 | RRIRIRPPRLPRPRPRPNPMPRP | -0.169
109 | RRIRIRPPRLPRPRPRPQDLPRP | -0.527
110 | RRIRYRPPRLPRPRPRPMKQPRP | -0.0304
111 | RRIRMRPPRLPRPRPRPEKLPRP | 0.462
112 | RRIRYRPPRLPRPRPRPRCVPRP | -0.276
113 | RRIRERPPRLPRPRPRPTADPRP | 0.0264
114 | RRIRARPPRLPRPRPRPPSRPRP | 0.691
115 | RRIRDRPPRLPRPRPRPCSDPRP | 0.0293
116 | RRIRARPPRLPRPRPRPTHFPRP | 0.809
117 | RRIRSRPPRLPRPRPRPWVCPRP | 0.101
118 | RRIRCRPPRLPRPRPRPLVIPRP | -0.401
119 | RRIRYRPPRLPRPRPRPTIMPRP | -1.29
120 | RRIRVRPPRLPRPRPRPVGWPRP | 0.77
121 | RRIRKRPPRLPRPRPRPNSKPRP | 0.0385
122 | RRIRRRPPRLPRPRPRPNAFPRP | -0.0721
123 | RRIRKRPPRLPRPRPRPDHPPRP | 0.0127
124 | RRIRVRPPRLPRPRPRPICTPRP | -0.00144
125 | RRIRSRPPRLPRPRPRPIKWPRP | -0.197

Row | Sequence | shrunken log2 fold change
126 | RRIRNRPPRLPRPRPRPCETPRP | -0.0224
127 | RRIRMRPPRLPRPRPRPLWKPRP | 0.0435
128 | RRIRHRPPRLPRPRPRPYVWPRP | 0.0405
129 | RRIRFRPPRLPRPRPRPDMGPRP | -0.176
130 | RRIRPRPPRLPRPRPRPYHKPRP | -1.15
131 | RRIRTRPPRLPRPRPRPNGGPRP | 0.033
132 | RRIRQRPPRLPRPRPRPNYHPRP | -0.676
133 | RRIRWRPPRLPRPRPRPQQCPRP | 0.112
134 | RRIRCRPPRLPRPRPRPQPRPRP | 0.745
135 | RRIRHRPPRLPRPRPRPIQNPRP | -0.252
136 | RRIRKRPPRLPRPRPRPSQGPRP | 0.0922
137 | RRIRQRPPRLPRPRPRPRDVPRP | -0.0705
138 | RRIRPRPPRLPRPRPRPRIGPRP | 0.0981
139 | RRIRIRPPRLPRPRPRPRNSPRP | 0.0503
140 | RRIRHRPPRLPRPRPRPFNPPRP | -0.17
141 | RRIRPRPPRLPRPRPRPSGQPRP | -0.0898
142 | RRIRERPPRLPRPRPRPQDQPRP | 0.0272
143 | RRIRMRPPRLPRPRPRPPFAPRP | 1.07
144 | RRIRNRPPRLPRPRPRPTGFPRP | -0.0139
145 | RRIRKRPPRLPRPRPRPRIYPRP | -0.0634
146 | RRIRNRPPRLPRPRPRPGRAPRP | 0.177
147 | RRIRHRPPRLPRPRPRPLDRPRP | -0.56
148 | RRIRDRPPRLPRPRPRPDIMPRP | 0.0348
149 | RRIRDRPPRLPRPRPRPHAAPRP | 0.458
150 | RRIRNRPPRLPRPRPRPLIDPRP | -0.0832
